According to patent US20240343811A1:
Where two headings read alike, the source gives them in different places.

What was measured:
[1] = target: human CD16a (158V), full length, on cells (human) (UniProt P08637); assay: cell-based or functional assay
[2] = target: CD16 on primary human NK cells (human) (UniProt P08637); assay: FACS on human NK cells
[3] = target: cynomolgus monkey CD16, full length, on FlpinCHO cells (cynomolgus monkey) (UniProt Q8SPW2); assay: FACS on FlpinCHO cells
[4] = target: human CD16a (158F), full length, on FlpinCHO cells (human) (UniProt P08637); assay: FACS on FlpinCHO cells
[5] = target: human CD16a (158V), full length, on cells (human) (UniProt P08637); assay: FACS on FlpinCHO cells
[6] = target: human CD16b (NA2), full length, on FlpinCHO cells (human) (UniProt O75015); assay: FACS on FlpinCHO cells
[7] = target: human CD16b (NA1), full length, on FlpinCHO cells (human) (UniProt O75015); assay: FACS on FlpinCHO cells
[8] = target: human CD16a (158V), full length, on cells (human) (UniProt P08637); assay: FACS, biotinylated antibody
[9] = target: human CD16a (158V), full length, on cells (human) (UniProt P08637); assay: cell-based or functional assay; remark: listed apart in the source
[10] = target: human CD16a (158V), full length, on cells (human) (UniProt P08637); assay: FACS, biotinylated antibody, +10 mg/mL human immunoglobulin

Sequence of human CD16a (158V), full length, on cells (human) (P08637 17-254 F176V limits assumed): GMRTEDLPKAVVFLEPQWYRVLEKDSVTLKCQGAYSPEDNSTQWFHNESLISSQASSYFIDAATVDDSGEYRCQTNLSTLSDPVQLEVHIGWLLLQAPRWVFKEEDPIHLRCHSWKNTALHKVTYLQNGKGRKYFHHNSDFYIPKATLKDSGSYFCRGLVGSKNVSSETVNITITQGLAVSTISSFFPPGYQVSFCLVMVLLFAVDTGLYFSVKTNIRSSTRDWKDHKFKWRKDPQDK
Sequence of human CD16b (NA2), full length, on FlpinCHO cells (human) (O75015 17-200 N65S limits assumed): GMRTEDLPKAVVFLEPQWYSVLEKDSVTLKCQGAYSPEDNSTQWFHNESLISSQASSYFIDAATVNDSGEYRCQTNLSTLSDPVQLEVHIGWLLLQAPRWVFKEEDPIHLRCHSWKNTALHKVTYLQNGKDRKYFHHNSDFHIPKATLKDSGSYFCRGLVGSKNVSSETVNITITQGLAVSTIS
Sequence of cynomolgus monkey CD16, full length, on FlpinCHO cells (cynomolgus monkey) (Q8SPW2 other isoform, or with tags, fused parts or gaps limits assumed): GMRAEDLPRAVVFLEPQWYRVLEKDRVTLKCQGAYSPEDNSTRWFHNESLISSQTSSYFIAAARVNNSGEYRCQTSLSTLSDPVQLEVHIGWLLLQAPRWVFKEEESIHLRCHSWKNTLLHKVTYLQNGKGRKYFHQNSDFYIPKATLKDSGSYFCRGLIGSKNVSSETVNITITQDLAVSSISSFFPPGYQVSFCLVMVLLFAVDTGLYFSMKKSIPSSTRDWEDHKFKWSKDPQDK
Sequence of human CD16b (NA1), full length, on FlpinCHO cells (human) (O75015 other isoform, or with tags, fused parts or gaps limits assumed): as the sequence (O75015 17-200 N65S limits assumed) above, with S20R, S49N, N66D, I90V counted along it
Sequence of CD16 on primary human NK cells (human) (P08637 17-254): as the sequence (P08637 17-254 F176V limits assumed) above, with V160F counted along it
Sequence of human CD16a (158F), full length, on FlpinCHO cells (human) (P08637 17-254 limits assumed): as the sequence (P08637 17-254 F176V limits assumed) above, with V160F counted along it

EC50, activation activity for Jurkat cell [1]: 0.019 µM
Maximum fluorescence value [1]: 6400
Maximum mean fluorescence intensity [2]: 238
Maximum mean fluorescence intensity [3]: 128
Maximum mean fluorescence intensity [4]: 216
Maximum mean fluorescence intensity [5]: 248
Maximum mean fluorescence intensity [6]: 447
Maximum mean fluorescence intensity [7]: 189
Maximum mean fluorescence intensity [8]: 134
Maximum fluorescence value [9]: 2070
Maximum mean fluorescence intensity [10]: 96
Substance: NC, negative control antibody scFv-hFc (L234A, L235A and D265A) against chicken egg lysozyme (Fc fusion)
